Like-named read-outs stand apart in the source and are kept apart here. Positions of bridges follow the written chain, without caps; N, C: chain ends. Non-standard residues stand in square brackets, D forms with d. No end group written: not given here. *: point of attachment. ATB = 4-(1-azi-2,2,2-trifluoroethyl)benzoyl, O=C(c1ccc(C2(C(F)(F)F)N=N2)cc1)*
How the values were obtained:
[1] = biological target: mouse CRF receptor, type 2β (mCRFR2β) (mouse) (UniProt Q60748); assay: displacement of [125I-Tyr0]Svg from HEK-mCRFR2β membranes
[2] = biological target: mouse CRF receptor, type 2β (mCRFR2β) (mouse) (UniProt Q60748); assay: Kd(rCRFR1)/Kd(mCRFR2β) of the peptide normalised to that of astressin; radioligand displacement
[3] = biological target: T1, mCRFR2β (Mus musculus, UniProt Q60748); assay: Displacement of [^125I-Tyr^0]Svg from membranes of HEK-mCRFR2β cells; assay type: binding
T1 construct: expressed in transfected cells; host or cells: HEK 293 cells, stably transfected (HEK-mCRFR2β); membrane homogenates
Procedure: (§1) Binding assays were performed in 96-well MultiScreen plates (Millipore, Eschborn, Germany) with GF/B filters (pore size 1.0 μm). […] After incubation (60 min, 23° C.), membrane suspension was aspirated through the plate, followed by two washes with assay buffer (0.2 ml, 23°). Radioactivity of the punched filters was measured with a 1470 WIZARD automatic gamma counter (Berthold, Hannover). […] Statistical analysis was performed with ANOVA, and significant differences between groups were determined by post hoc comparison using the Dunn test.
Membrane homogenates of human embryonic kidney (HEK) 293 cells stably transfected with cDNA coding for rat CRF receptor, type 1 (rCRFR1) or mouse CRF receptor, type 2β (mCRFR2β) were prepared according to standard protocols (see, e.g., Sambrook et al., Molecular Cloning: A Laboratory Manual, 2nd. Edition, Cold Spring Habor Laboratory Press, Cold Spring Habor, N.Y., 1989; Ausubel et al., Current Protocols in Molecular Biology, Green Publishing Associates and Wiley Interscience, NY, 1989).

[4] = biological target: T2, rCRFR1 (Rattus norvegicus, UniProt P35353); assay: cAMP stimulation / inhibition of oCRF-stimulated cAMP production in HEK-rCRFR1 cells; assay type: cell-based
T2 construct: expressed in transfected cells; host or cells: HEK 293 cells, stably transfected (HEK-rCRFR1)
T2 sequence (P35353 24-415): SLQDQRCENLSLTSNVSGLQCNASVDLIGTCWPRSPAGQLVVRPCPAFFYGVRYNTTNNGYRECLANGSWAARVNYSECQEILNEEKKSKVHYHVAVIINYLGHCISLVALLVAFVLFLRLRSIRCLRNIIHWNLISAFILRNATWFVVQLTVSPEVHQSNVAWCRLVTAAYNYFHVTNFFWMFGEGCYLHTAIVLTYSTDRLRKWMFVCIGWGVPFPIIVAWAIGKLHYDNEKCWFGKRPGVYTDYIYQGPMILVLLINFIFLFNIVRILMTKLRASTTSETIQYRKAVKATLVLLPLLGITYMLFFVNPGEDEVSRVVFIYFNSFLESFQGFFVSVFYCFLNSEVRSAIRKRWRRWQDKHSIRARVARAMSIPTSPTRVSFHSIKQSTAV
Procedure: (§2) HEK-rCRFR1 cells or HEK-mCRFR2β cells were incubated with different CRF agonists in the presence or absence of 1 μM or 10 nM antagonist, or CRF antagonist (c=1 μM) alone. After removal of the medium, cells were lyzed with aqueous 6% trichloroacetic acid (5 min, 100° C.) (Rühmann, A., A. K. E. Köpke, F. M. Dautzenberg, and J. Spiess, Proc. Natl. Acad. Sci. USA 93: 10609-10613, 1996). The cell lysates were stored at −70° C. until assayed with a RIA kit (Amersham, Little Chalfont). […] Statistical significance was determined across groups with ANOVA, and significant differences between groups were determined by post hoc comparison using the Dunn test.
(§3) Intrinsic activities were measured at peptide concentrations generating maximal formation of cAMP in HEK-rCRFR1 or HEK-mCRFR2β cells.

[5] = biological target: T1, mCRFR2β; assay: cAMP stimulation / inhibition of Svg-stimulated cAMP production in HEK-mCRFR2β cells; assay type: cell-based
Procedure: as §2, §3
Target sequence in this assay (Q60748 1-431 isoform Q60748-2): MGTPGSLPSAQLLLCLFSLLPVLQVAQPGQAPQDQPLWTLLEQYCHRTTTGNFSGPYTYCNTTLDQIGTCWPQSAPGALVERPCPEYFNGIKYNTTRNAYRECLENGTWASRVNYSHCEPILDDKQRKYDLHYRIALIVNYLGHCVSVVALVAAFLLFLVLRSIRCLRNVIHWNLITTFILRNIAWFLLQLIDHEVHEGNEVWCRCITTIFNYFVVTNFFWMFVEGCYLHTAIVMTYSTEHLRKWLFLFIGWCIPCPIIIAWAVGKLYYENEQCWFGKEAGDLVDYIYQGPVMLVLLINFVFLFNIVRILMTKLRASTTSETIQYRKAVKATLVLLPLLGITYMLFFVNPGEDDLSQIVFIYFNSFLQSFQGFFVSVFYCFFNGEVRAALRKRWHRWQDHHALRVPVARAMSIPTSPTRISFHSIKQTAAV

[6] = biological target: T3, rat CRF receptor, type 1 (rCRFR1) (rat, UniProt P35353 24-415); assay: cell-based or functional assay
T3 sequence (looked up): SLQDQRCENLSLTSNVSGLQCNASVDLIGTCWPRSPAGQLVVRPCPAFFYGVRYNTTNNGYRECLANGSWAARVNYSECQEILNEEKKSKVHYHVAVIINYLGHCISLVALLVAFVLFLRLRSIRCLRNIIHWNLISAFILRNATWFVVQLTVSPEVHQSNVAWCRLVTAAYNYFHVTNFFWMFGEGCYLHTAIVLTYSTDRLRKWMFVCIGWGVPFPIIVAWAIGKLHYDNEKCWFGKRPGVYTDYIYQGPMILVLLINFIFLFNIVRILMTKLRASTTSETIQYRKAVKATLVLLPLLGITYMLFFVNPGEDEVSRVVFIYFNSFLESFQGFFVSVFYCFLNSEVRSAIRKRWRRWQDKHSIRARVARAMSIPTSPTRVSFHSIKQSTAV

[7] = biological target: T3, rat CRF receptor, type 1 (rCRFR1); assay: cell-based or functional assay; remark: listed apart in the source
[8] = biological target: T3, rat CRF receptor, type 1 (rCRFR1); assay: displacement of [125I-Tyr0]oCRF from HEK-rCRFR1 membranes
Procedure: as §1

## astressin, cyclo(30-33)[DPhe^12, Nle^21,38, Glu^30, Lys^33]h/rCRF(12-41) (peptide)
[1]
  Kd: 4 nM
[2]
  Selectivity: 1

## sauvagine (Svg) (peptide)
[1]
  Kd: 4.5 nM
[2]
  Selectivity: 0.109

## CC[C@H](C)[C@H](NC(=O)[C@@H](NC(=O)[C@H](CC(=O)O)NC(=O)[C@H](CC(C)C)NC(=O)[C@H](CC(C)C)NC(=O)[C@H](CC(C)C)NC(=O)[C@H](CCCNC(=N)N)NC(=O)[C@H](CC(N)=O)NC(=O)[C@H](CC(N)=O)NC(=O)[C@H](C)NC(=O)[C@H](C)NC(=O)[C@H](CCC(N)=O)NC(=O)[C@H](CCC(N)=O)NC(=O)[C@H](CCCCN)NC(=O)[C@H](CCC(=O)O)NC(=O)[C@H](CCCCN)NC(=O)[C@H](CCC(=O)O)NC(=O)[C@H](CCC(N)=O)NC(=O)[C@H](CCCCN)NC(=O)[C@H](CCC(=O)O)NC(=O)[C@@H](NC(=O)[C@H](CCC(=O)O)NC(=O)[C@@H](NC(=O)[C@H](CCSC)NC(=O)[C@H](CCCCN)NC(=O)[C@H](CCCNC(=N)N)NC(=O)[C@H](CC(C)C)NC(=O)[C@H](CC(C)C)NC(=O)[C@H](Cc1c[nH]cn1)NC(=O)[C@H](N)Cc1ccccc1)[C@@H](C)CC)[C@@H](C)CC)[C@@H](C)O)C(N)=O [compound 11, [DPhe^11, His^12]Svg(11-40)]
[3]
  Kd: 1.4 ± 0.4 nM
[4]; read-out: HEK-rCRFR1 cells rel. IA (relative intrinsic activity)
  Emax: 4 ± 1%
[4]; read-out: rCRFR1 % IA (intrinsic activity)
  Emax: 4 ± 1%
[5]; read-out: HEK-mCRFR2β cells rel. IA (relative intrinsic activity)
  Emax: 0.4 ± 0.1%
[5]; read-out: mCRFR2β % IA (intrinsic activity)
  Emax: 0.4 ± 0.1%

## [DPhe^11, Glu^12]rUcn(11-40) [compound 8]
[3]; Table 1, Kd(rCRFR1)(peptide)/Kd(rCRFR1)(astressin) × Kd(mCRFR2β)(astressin)/Kd(mCRFR2β)(peptide)
  Selectivity: 5.04
[4]; Table 2, 1 μM antagonist, cAMP production stimulated by 1 nM oCRF, oCRF alone = 1.00 (lower = stronger inhibition)
  rCRFR1 relative in vitro potency: 0.42 ± 0.11
[5]; Table 2, 10 nM antagonist, cAMP production stimulated by 1 nM Svg, Svg alone = 1.00 (lower = stronger inhibition)
  mCRFR2β relative in vitro potency: 0.61 ± 0.02

B1: [DPhe^11]rUcn(11-40) (peptide)
peptide: [dF]HLLRTILELARTQSQRERAEQNRIIFDSV
modifications: ends and bridges not checked
[6]
  % IA (intrinsic activity), cAMP production, HEK-rCRFR1 cells: 0.07 relative, oCRF = 1.00

B2: cyclo(29-32)[DPhe^11, Glu^29, Lys^32]rUcn(11-40) (peptide)
peptide: [dF]HLLRTILELARTQSQREEAEKNRIIFDSV
modifications: lactam 19-22; ends not checked
[6]
  % IA (intrinsic activity), cAMP production, HEK-rCRFR1 cells: 0.1 relative, oCRF = 1.00

B3: [DPhe^11, Glu^12]rUcn(11-40) (peptide)
peptide: [dF]ELLRTILELARTQSQRERAEQNRIIFDSV
modifications: ends and bridges not checked
[6]
  % IA (intrinsic activity), cAMP production, HEK-rCRFR1 cells: 0.22 relative, oCRF = 1.00

B4: [DLeu^11, Glu^12]rUcn(11-40) (peptide)
peptide: [dL]ELLRTILELARTQSQRERAEQNRIIFDSV
modifications: ends and bridges not checked
[6]
  % IA (intrinsic activity), cAMP production, HEK-rCRFR1 cells: 0.23 relative, oCRF = 1.00

B5: ATB-[His^12]Svg(12-40) (peptide)
peptide: {ATB}-HLLRKMIEIEKQEKEKQQAANNRLLLDTI
modifications: ends and bridges not checked
notes: also called compound 17
[7]
  rel. IA (relative intrinsic activity), cAMP production, HEK-rCRFR1 cells: 0.15 relative, oCRF = 1.00
  rel. pot. (relative potency), inhibition of oCRF-stimulated cAMP production, HEK-rCRFR1 cells: 0.54 relative, oCRF = 1.00
[8]
  Kd: 142 nM
[2]
  Selectivity: 32.3

B6: [Tyr^12]Svg(12-40) (peptide)
peptide: YLLRKMIEIEKQEKEKQQAANNRLLLDTI
modifications: ends and bridges not checked
notes: also called compound 20
[7]
  rel. IA (relative intrinsic activity), cAMP production, HEK-rCRFR1 cells: 0.06 relative, oCRF = 1.00
  rel. pot. (relative potency), inhibition of oCRF-stimulated cAMP production, HEK-rCRFR1 cells: 0.9 relative, oCRF = 1.00
[8]
  Kd: 996 nM
[2]
  Selectivity: 1.63

B7: [DPhe^12]oCRF(12-41) (peptide)
peptide: [dF]HLLREVLEMTKADQLAQQAHSNRKLLDIA
modifications: ends and bridges not checked
[6]
  % IA (intrinsic activity), cAMP production, HEK-rCRFR1 cells: 0.05 relative, oCRF = 1.00

B8: antisauvagine-30, [DPhe^11, His^12]Svg(11-40) (peptide)
peptide: [dF]HLLRKMIEIEKQEKEKQQAANNRLLLDTI
modifications: not fully specified (C-terminus)
[6]
  % IA (intrinsic activity), cAMP production, HEK-rCRFR1 cells: 0.04 relative, oCRF = 1.00
[2]
  Selectivity: 77

From patent publication US6846803B1, “Antagonists specific for the corticotropin-releasing factor receptor type 2 (CRFR2)” (priority 1998, dated 2005)
